Measured values: patent publication US20250263462A1 (US Dept. of Health and Human Services, published 2025)

What was measured:
Assay in all cases: cell-based or functional assay
[1] = target: T1, KRAS G12D 9-mer peptide KRAS8-16 … (SEQ ID NO: 34) presented by HLA-A11 on pulsed cells (human, UniProt A*11:01)
[2] = target: WT KRAS 9-mer peptide (SEQ ID NO: 31) presented by HLA-A11 on pulsed cells (human, UniProt A*11:01)
[3] = target: T2, WT KRAS 10-mer peptide (SEQ ID NO: 30) presented by HLA-A11 on pulsed cells (human, UniProt A*11:01)
[4] = target: T1, KRAS G12D 9-mer peptide KRAS8-16 … (SEQ …); remark: listed apart in the source
[5] = target: T3, KRAS G12D 10-mer peptide … (SEQ ID NO: 2) presented by HLA-A11 on pulsed cells (human, UniProt A*11:01)
[6] = target: T2, WT KRAS 10-mer peptide (SEQ ID NO: 30) …; remark: listed apart in the source
[7] = target: KRAS G12V 9-mer peptide … (SEQ ID NO: 35) presented by HLA-A11 on pulsed cells (human, UniProt A*11:01)
[8] = target: T3, KRAS G12D 10-mer peptide … (SEQ ID NO: …); remark: listed apart in the source
[9] = target: T2, WT KRAS 10-mer peptide (SEQ ID NO: 30) …; remark: listed apart in the source
[10] = target: HLA-A11 on COS7/A11 cells expressing the KRAS G12D minigene (23-mer SEQ ID NO: 119) (human, UniProt A*11:01)
[11] = target: HLA-A11 on COS7/A11 cells expressing the KRAS G12V minigene (23-mer SEQ ID NO: 120) (human, UniProt A*11:01)
[12] = target: HLA-A11 on COS7/A11 cells expressing the WT KRAS minigene (23-mer SEQ ID NO: 118) (human, UniProt A*11:01)

B1: TRAV4-4/DV10*01/BV12-2*01 murine anti-KRAS G12D TCR (SEQ ID NOs: 157 and 158) (TCR, V domains shown)
V domain 1: GDQVEQSPSALSLHEGTDSALRCNFTTTMRSVQWFRQNSRGSLISLFYLASGTKENGRLKSAFDSKERRYSTLHIRDAQLEDSGTYFCAADSSNTGYQNFYFGKGTSLTVIP
V domain 2: NSGVVQSPRYIIKGKGERSILKCIPISGHLSVAWYQQTQGQELKFFIQHYDKMERDKGNLPSRFSVQQFDDYHSEMNMSALELEDSAVYFCASSLTDPLDSDYTFGSGTRLLVIE
[1]
  IFN-γ, PBL + Cos7/A11 pulsed at 10^-6 M: 131 pg/mL
  IFN-γ, PBL + Cos7/A11 pulsed at 10^-7 M: 60 pg/mL
  IFN-γ, PBL + Cos7/A11 pulsed at 10^-8 M: 47 pg/mL
  IFN-γ, PBL + Cos7/A11 pulsed at 10^-9 M: 53 pg/mL
  IFN-γ, PBL + Cos7/A11 pulsed at 10^-10 M: 53 pg/mL
  IFN-γ, PBL + Cos7/A11 pulsed at 10^-11 M: 52 pg/mL
  IFN-γ, PBL + Cos7/A11 pulsed at 10^-12 M: 58 pg/mL
  IFN-γ, PBL + Cos7/A11 pulsed at 10^-13 M: 51 pg/mL
[2]
  IFN-γ, PBL + Cos7/A11 pulsed at 10^-6 M: 54 pg/mL
  IFN-γ, PBL + Cos7/A11 pulsed at 10^-7 M: 53 pg/mL
  IFN-γ, PBL + Cos7/A11 pulsed at 10^-8 M: 59 pg/mL
  IFN-γ, PBL + Cos7/A11 pulsed at 10^-9 M: 54 pg/mL
  IFN-γ, PBL + Cos7/A11 pulsed at 10^-10 M: 51 pg/mL
  IFN-γ, PBL + Cos7/A11 pulsed at 10^-11 M: 48 pg/mL
  IFN-γ, PBL + Cos7/A11 pulsed at 10^-12 M: 52 pg/mL
  IFN-γ, PBL + Cos7/A11 pulsed at 10^-13 M: 51 pg/mL
[3]
  IFN-γ, PBL + Cos7/A11 pulsed at 10^-6 M: 56 pg/mL
  IFN-γ, PBL + Cos7/A11 pulsed at 10^-7 M: 57 pg/mL
  IFN-γ, PBL + Cos7/A11 pulsed at 10^-8 M: 51 pg/mL
  IFN-γ, PBL + Cos7/A11 pulsed at 10^-9 M: 51 pg/mL
  IFN-γ, PBL + Cos7/A11 pulsed at 10^-10 M: 54 pg/mL
  IFN-γ, PBL + Cos7/A11 pulsed at 10^-11 M: 50 pg/mL
  IFN-γ, PBL + Cos7/A11 pulsed at 10^-12 M: 44 pg/mL
  IFN-γ, PBL + Cos7/A11 pulsed at 10^-13 M: 54 pg/mL

B2: TRAV19*01/TRBV13-1*02 murine anti-KRAS G12V TCR (SEQ ID NOs: 145 and 146) (TCR, V domains shown)
V domain 1: GQQVKQSSPSLTVQEGGILILNCDYENDMFDYFAWYKKYPDNSPTLLISVRSNVDKREDGRFTVFLNKSGKHFSLHITASQPEDTAVYLCAAGDSGGSNYKLTFGKGTLLTVTP
V domain 2: EAAVTQSPRNKVTVTGGNVTLSCRQTNSHNYMYWYRQDTGHGLRLIHYSYGAGNLQIGDVPDGYKATRTTQEDFFLLLELASPSQTSLYFCASASWGGYAEQFFGPGTRLTVLE
[4]
  IFN-γ, PBL + Cos7/A11 pulsed at 10^-6 (10^× µM): 63 pg/mL
  IFN-γ, PBL + Cos7/A11 pulsed at 10^-7 (10^× µM): 57 pg/mL
  IFN-γ, PBL + Cos7/A11 pulsed at 10^-8 (10^× µM): 48 pg/mL
  IFN-γ, PBL + Cos7/A11 pulsed at 10^-9 (10^× µM): 54 pg/mL
  IFN-γ, PBL + Cos7/A11 pulsed at 10^-10 (10^× µM): 62 pg/mL
  IFN-γ, PBL + Cos7/A11 pulsed at 10^-11 (10^× µM): 52 pg/mL
  IFN-γ, PBL + Cos7/A11 pulsed at 10^-12 (10^× µM): 57 pg/mL
  IFN-γ, PBL + Cos7/A11 pulsed at 10^-13 (10^× µM): 70 pg/mL
[5]
  IFN-γ, PBL + Cos7/A11 pulsed at 10^-6 (10^× µM): 61 pg/mL
  IFN-γ, PBL + Cos7/A11 pulsed at 10^-7 (10^× µM): 50 pg/mL
  IFN-γ, PBL + Cos7/A11 pulsed at 10^-8 (10^× µM): 49 pg/mL
  IFN-γ, PBL + Cos7/A11 pulsed at 10^-9 (10^× µM): 59 pg/mL
  IFN-γ, PBL + Cos7/A11 pulsed at 10^-10 (10^× µM): 52 pg/mL
  IFN-γ, PBL + Cos7/A11 pulsed at 10^-11 (10^× µM): 64 pg/mL
  IFN-γ, PBL + Cos7/A11 pulsed at 10^-12 (10^× µM): 62 pg/mL
  IFN-γ, PBL + Cos7/A11 pulsed at 10^-13 (10^× µM): 63 pg/mL
[6]
  IFN-γ, PBL + Cos7/A11 pulsed at 10^-6 (10^× µM): 57 pg/mL
  IFN-γ, PBL + Cos7/A11 pulsed at 10^-7 (10^× µM): 56 pg/mL
  IFN-γ, PBL + Cos7/A11 pulsed at 10^-8 (10^× µM): 57 pg/mL
  IFN-γ, PBL + Cos7/A11 pulsed at 10^-9 (10^× µM): 49 pg/mL
  IFN-γ, PBL + Cos7/A11 pulsed at 10^-10 (10^× µM): 57 pg/mL
  IFN-γ, PBL + Cos7/A11 pulsed at 10^-11 (10^× µM): 65 pg/mL
  IFN-γ, PBL + Cos7/A11 pulsed at 10^-12 (10^× µM): 67 pg/mL
  IFN-γ, PBL + Cos7/A11 pulsed at 10^-13 (10^× µM): 70 pg/mL
[7]
  IFN-γ, PBL + Cos7/A11 pulsed at 10^-6 (10^× µM): 112 pg/mL
  IFN-γ, PBL + Cos7/A11 pulsed at 10^-7 (10^× µM): 70 pg/mL
  IFN-γ, PBL + Cos7/A11 pulsed at 10^-8 (10^× µM): 52 pg/mL
  IFN-γ, PBL + Cos7/A11 pulsed at 10^-9 (10^× µM): 55 pg/mL
  IFN-γ, PBL + Cos7/A11 pulsed at 10^-10 (10^× µM): 64 pg/mL
  IFN-γ, PBL + Cos7/A11 pulsed at 10^-11 (10^× µM): 62 pg/mL
  IFN-γ, PBL + Cos7/A11 pulsed at 10^-12 (10^× µM): 66 pg/mL
  IFN-γ, PBL + Cos7/A11 pulsed at 10^-13 (10^× µM): 64 pg/mL
[8]
  IFN-γ, PBL + pulsed Cos7/A11: 94 pg/mL
[9]
  IFN-γ, PBL + pulsed Cos7/A11: 90 pg/mL
[10]
  IFN-γ, PBL + Cos7/A11 minigene transfectant: 81 pg/mL
[11]
  IFN-γ, PBL + Cos7/A11 minigene transfectant: 18100 pg/mL
[12]
  IFN-γ, PBL + Cos7/A11 minigene transfectant: 92 pg/mL
